In patent US20220056146A1 (TASRIF PHARMACEUTICAL, published 2022):

T1: human CD155 (poliovirus receptor, PVR) on cells (U87/U87MG, HAP1) (human, UniProt P15151 21-417)
T1 construct: whole, on cells
T1 sequence (looked up): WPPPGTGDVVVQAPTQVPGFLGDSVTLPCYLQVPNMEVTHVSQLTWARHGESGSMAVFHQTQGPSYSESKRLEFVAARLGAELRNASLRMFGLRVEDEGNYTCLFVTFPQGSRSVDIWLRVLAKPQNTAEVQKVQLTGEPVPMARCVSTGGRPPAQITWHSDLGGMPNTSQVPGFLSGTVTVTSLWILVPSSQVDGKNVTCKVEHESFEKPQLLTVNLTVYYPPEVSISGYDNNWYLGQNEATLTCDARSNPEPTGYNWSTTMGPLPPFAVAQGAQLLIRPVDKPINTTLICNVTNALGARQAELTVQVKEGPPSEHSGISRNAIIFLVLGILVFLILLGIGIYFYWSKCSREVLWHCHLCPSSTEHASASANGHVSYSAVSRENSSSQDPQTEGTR

T2: poliovirus receptor (PVR, CD 155), form not stated (UniProt P15151 21-343, limits assumed)
T2 sequence (looked up): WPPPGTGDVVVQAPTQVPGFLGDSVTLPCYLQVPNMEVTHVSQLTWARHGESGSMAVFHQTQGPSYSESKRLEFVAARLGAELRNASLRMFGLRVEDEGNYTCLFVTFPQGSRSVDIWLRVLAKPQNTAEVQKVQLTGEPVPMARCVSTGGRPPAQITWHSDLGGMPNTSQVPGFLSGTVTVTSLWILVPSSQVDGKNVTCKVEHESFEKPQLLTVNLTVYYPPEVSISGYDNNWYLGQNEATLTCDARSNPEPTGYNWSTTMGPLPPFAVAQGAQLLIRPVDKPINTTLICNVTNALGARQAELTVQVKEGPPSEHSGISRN


Assays:
[1] = target: T3, African green monkey PVR (CD 155) on Vero cells (African green monkey); assay: cell binding on Vero cells
T3 construct: whole, on cells
T3 sequence (P32506 21-417): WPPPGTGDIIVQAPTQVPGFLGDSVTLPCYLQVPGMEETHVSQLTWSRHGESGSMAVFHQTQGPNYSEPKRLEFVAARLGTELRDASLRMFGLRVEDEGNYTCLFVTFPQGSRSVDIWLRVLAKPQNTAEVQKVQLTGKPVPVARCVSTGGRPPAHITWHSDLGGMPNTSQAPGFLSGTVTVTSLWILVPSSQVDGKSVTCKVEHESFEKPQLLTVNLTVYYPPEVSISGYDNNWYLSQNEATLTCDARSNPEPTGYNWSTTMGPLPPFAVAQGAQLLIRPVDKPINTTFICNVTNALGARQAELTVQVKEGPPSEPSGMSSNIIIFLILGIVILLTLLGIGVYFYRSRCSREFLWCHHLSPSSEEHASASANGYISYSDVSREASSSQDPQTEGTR

[2] = target: T1, human CD155 (poliovirus receptor, PVR) …; assay: cell binding on HAP-1 cells
[3] = target: T1, human CD155 (poliovirus receptor, PVR) …; assay: cell binding on U-87 cells
[4] = target: T1, human CD155 (poliovirus receptor, PVR) …; assay: in vivo fluorescence imaging of mice with U87MG tumors, 72 hours after injection
Procedure: Ab825-VT680 conjugate binds and accumulates in U87MG tumors In Vivo. The control mice were either untreated or treated with VT 680 dye alone.

[5] = target: T2, poliovirus receptor (PVR, CD 155), form …; assay: surface plasmon resonance (Biacore)

Binder | EC50 [1] [µg/mL] | EC50 [2] [µg/mL] | EC50 [3] [µg/mL] | binding result [4] | Kd [5] [nM]
Ab825 (VH0/VK0), human IgG1 chimeric antibody (antibody, V domains shown, Murine variable regions in a human IgG1 chimeric antibody, derived from D171) VH: EVQLQQSGPELVKPGASVKISCKTSGYTFTEYTMHWVKQSHGKSLEWIGGIHPNNGDTSYNQRFKGKATLTVDKSSSTAYMELRSLTSEDSAVYYCARWTGDFDYWGQGTTLTVST VL: DIVMTQSPKFMSTSVGDRVSVTCKASQNVGTNVAWYQQKPGQSPKALIYSASYRYSGVPDRFTGSGSGTDFTLTISNVQSEDLAEYFCQQYNSYPYTFGGGTKLEIK | 0.086 | 0.0487 | 0.0869 | – | –
Ab825-VT680 conjugate (antibody, V domains shown, Ab825 conjugated to the fluorophore VT680; Neither the chain nor the site of conjugation is stated) VH: EVQLQQSGPELVKPGASVKISCKTSGYTFTEYTMHWVKQSHGKSLEWIGGIHPNNGDTSYNQRFKGKATLTVDKSSSTAYMELRSLTSEDSAVYYCARWTGDFDYWGQGTTLTVST VL: DIVMTQSPKFMSTSVGDRVSVTCKASQNVGTNVAWYQQKPGQSPKALIYSASYRYSGVPDRFTGSGSGTDFTLTISNVQSEDLAEYFCQQYNSYPYTFGGGTKLEIK | – | – | – | binds | –
VH4 N54S D56E / VK3 N92E (antibody, V domains shown, Humanized variant of Ab825; also called antibody (vi)) VH: EVQLVQSGSELKKPGASVKVSCKTSGYTFTEYTMHWVRQPHGKGLEWIGGIHPNSGETSYNQRFKGRVTITVDKSTSTAYMELSSLRSEDTAVYYCARWTGDFDYWGQGTLVTVSS VL: DIQMTQSPSAMSASVGDRVTITCKASQNVGTNVAWYQQKPGQPPKALIYSASYRYSGVPDRFSGSGSGTDFTLTISSLQAEDLAEYFCQQYESYPYTFGQGTKLEIK | 0.236 | 0.0984 | 0.585 | – | –
monoclonal antibody defined by SEQ ID 23 (LCVR) and SEQ ID 25 (HCVR) with a IgG4 (S241P) (antibody, V domains shown, also called VH4 N54S D56G / Vk3 N92Q IgG4 (S241P)) VH: EVQLVQSGSELKKPGASVKVSCKTSGYTFTEYTMHWVRQPHGKGLEWIGGIHPNSGGTSYNQRFKGRVTITVDKSTSTAYMELSSLRSEDTAVYYCARWTGDFDYWGQGTLVTVSS VL: DIQMTQSPSAMSASVGDRVTITCKASQNVGTNVAWYQQKPGQPPKALIYSASYRYSGVPDRFSGSGSGTDFTLTISSLQAEDLAEYFCQQYQSYPYTFGQGTKLEIK | – | – | – | – | 0.3
VH4 N54Q D56E / VK3 N92E (antibody, V domains shown, Humanized variant of Ab825; also called antibody (v)) VH: EVQLVQSGSELKKPGASVKVSCKTSGYTFTEYTMHWVRQPHGKGLEWIGGIHPNQGETSYNQRFKGRVTITVDKSTSTAYMELSSLRSEDTAVYYCARWTGDFDYWGQGTLVTVSS VL: DIQMTQSPSAMSASVGDRVTITCKASQNVGTNVAWYQQKPGQPPKALIYSASYRYSGVPDRFSGSGSGTDFTLTISSLQAEDLAEYFCQQYESYPYTFGQGTKLEIK | 0.629 | 0.097 | 0.551 | – | –
VH3 N54Q D56E / VK3 N92E (antibody, V domains shown, Humanized variant of Ab825; also called antibody (iii)) VH: EVQLVQSGSELKKPGASVKISCKTSGYTFTEYTMHWVRQPHGKGLEWIGGIHPNQGETSYNQRFKGRVTLTVDKSTSTAYMELSSLRSEDTAVYYCARWTGDFDYWGQGTLVTVSS VL: DIQMTQSPSAMSASVGDRVTITCKASQNVGTNVAWYQQKPGQPPKALIYSASYRYSGVPDRFSGSGSGTDFTLTISSLQAEDLAEYFCQQYESYPYTFGQGTKLEIK | 0.273 | 0.115 | 0.284 | – | –
VH4 N54S D56G / VK3 N92E (antibody, V domains shown, Humanized variant of Ab825; also called antibody (vii)) VH: EVQLVQSGSELKKPGASVKVSCKTSGYTFTEYTMHWVRQPHGKGLEWIGGIHPNSGGTSYNQRFKGRVTITVDKSTSTAYMELSSLRSEDTAVYYCARWTGDFDYWGQGTLVTVSS VL: DIQMTQSPSAMSASVGDRVTITCKASQNVGTNVAWYQQKPGQPPKALIYSASYRYSGVPDRFSGSGSGTDFTLTISSLQAEDLAEYFCQQYESYPYTFGQGTKLEIK | 0.108 | 0.0563 | 0.191 | – | –
VH4 N54S D56G / VK3 N92Q (antibody, V domains shown, Humanized variant of Ab825; also called antibody (ix); Sample 4) VH: EVQLVQSGSELKKPGASVKVSCKTSGYTFTEYTMHWVRQPHGKGLEWIGGIHPNSGGTSYNQRFKGRVTITVDKSTSTAYMELSSLRSEDTAVYYCARWTGDFDYWGQGTLVTVSS VL: DIQMTQSPSAMSASVGDRVTITCKASQNVGTNVAWYQQKPGQPPKALIYSASYRYSGVPDRFSGSGSGTDFTLTISSLQAEDLAEYFCQQYQSYPYTFGQGTKLEIK | 0.0869 | 0.0446 | 0.0932 | – | –
VH3 N54S D56G / VK3 N92Q (antibody, V domains shown, Humanized variant of Ab825; also called antibody (iv); Sample 3) VH: EVQLVQSGSELKKPGASVKISCKTSGYTFTEYTMHWVRQPHGKGLEWIGGIHPNSGGTSYNQRFKGRVTLTVDKSTSTAYMELSSLRSEDTAVYYCARWTGDFDYWGQGTLVTVSS VL: DIQMTQSPSAMSASVGDRVTITCKASQNVGTNVAWYQQKPGQPPKALIYSASYRYSGVPDRFSGSGSGTDFTLTISSLQAEDLAEYFCQQYQSYPYTFGQGTKLEIK | 0.0561 | 0.0381 | 0.0778 | – | –
VH3 N54S D56G / VK2 N92Q (antibody, V domains shown, Humanized variant of Ab825; also called antibody (ii); Sample 2) VH: EVQLVQSGSELKKPGASVKISCKTSGYTFTEYTMHWVRQPHGKGLEWIGGIHPNSGGTSYNQRFKGRVTLTVDKSTSTAYMELSSLRSEDTAVYYCARWTGDFDYWGQGTLVTVSS VL: DIVMTQSPSAMSASVGDRVTITCKASQNVGTNVAWYQQKPGQPPKALIYSASYRYSGVPDRFTGSGSGTDFTLTISSLQAEDLAEYFCQQYQSYPYTFGQGTKLEIK | 0.0615 | 0.0383 | 0.069 | – | –
VH3 N54Q D56E / VK2 N92E (antibody, V domains shown, Humanized variant of Ab825; also called antibody (i)) VH: EVQLVQSGSELKKPGASVKISCKTSGYTFTEYTMHWVRQPHGKGLEWIGGIHPNQGETSYNQRFKGRVTLTVDKSTSTAYMELSSLRSEDTAVYYCARWTGDFDYWGQGTLVTVSS VL: DIVMTQSPSAMSASVGDRVTITCKASQNVGTNVAWYQQKPGQPPKALIYSASYRYSGVPDRFTGSGSGTDFTLTISSLQAEDLAEYFCQQYESYPYTFGQGTKLEIK | 0.226 | 0.168 | 0.272 | – | –
VH4 N54Q D56E / VK3 N92Q (antibody, V domains shown, Humanized variant of Ab825; also called antibody (viii)) VH: EVQLVQSGSELKKPGASVKVSCKTSGYTFTEYTMHWVRQPHGKGLEWIGGIHPNQGETSYNQRFKGRVTITVDKSTSTAYMELSSLRSEDTAVYYCARWTGDFDYWGQGTLVTVSS VL: DIQMTQSPSAMSASVGDRVTITCKASQNVGTNVAWYQQKPGQPPKALIYSASYRYSGVPDRFSGSGSGTDFTLTISSLQAEDLAEYFCQQYQSYPYTFGQGTKLEIK | 0.48 | 0.108 | 0.523 | – | –
